These results are taken from US20220372577, “ANALYTE DETECTION METHOD” (IMPERIAL COLLEGE OF SCIENCE, TECHNOLOGY AND MEDICINE, published 2022).

In this series the target is alpha-thrombin (UniProt P00734;P00734 P00734:328-363,P00734:364-622). The experiment in a line: binding in 5% human serum, 0.1-100 nM thrombin, 30 pM MB-Carrier; comparable to 0.1 M KCl.

In the case of AGGTCGCCGCCCTCCAACGGTTGGTGTGGTTGG (structured_DNA, internal FAM on T13; 3' DABCYL) [TBA-embedded molecular beacon on lambda-DNA carrier (MB-Carrier)], the binding result is reported as “binds”.
